# Tests used:
# Test in all cases: SPR
# [1] = biological target: trastuzumab produced in CHO-gmt9 cells (human (detected with anti human IgG (H + L)))
# [2] = biological target: trastuzumab produced in CHO-gmt8 cells (human (detected with anti human IgG (H + L)))
# [3] = biological target: trastuzumab produced in CHO-gmt13 cells (human (detected with anti human IgG (H + L)))
# [4] = biological target: trastuzumab produced in CHO-K1 cells (human (detected with anti human IgG (H + L)))
# [5] = biological target: trastuzumab produced in CHO-gmt21 cells (human (detected with anti human IgG (H + L)))
substance,measurement,setting,value
extracellular domain of human FcγRIIIa with a His-tag (from UniProt P08637 17-208) (receptor),Kd,[1],80 nM
same,Kd,[2],200 nM
same,Kd,[3],780 nM
same,Kd,[4],560 nM
same,Kd,[5],799 nM

# From PMC11452509
